Substitutions are numbered along the chain they refer to.
B1: Protein L variant pAM249 (domain B1-2; H10, H45, Y60) (protein)
chain: SEEEVTIKAHLIFANGSTQTAEFKGTFEKATSEAYAYADTLKKDHGEYTVDVADKGYTLYIKFAGKEKTPEE
B2: Protein L variant pAM235 (domain B1-1; H10, H45, Q60) (protein)
chain: B1 chain with Y60Q
B3: Protein L variant pAM246 (domain C3b-1; H10, H45, Q60) (protein)
chain: PKEEVTIKVHLIFADGKIQTAEFKGTFEEATAKAYAYADLLAKEHGEYTADLEDGGYTIQIKFAGKETPETPEE
B4: Protein L variant pAM245 (domain C3-1; H10, H45, Q60) (protein)
chain: B3 chain with D39N, Y57N
B5: Protein L variant pAM243 (domain C2-1; H10, H45, Q60) (protein)
chain: B3 chain with I18T, Y57N
B6: Protein L variant pAM257 (domain C2-2; H10, H45, Y60) (protein)
chain: B3 chain with I18T, Y57N, Q60Y
B7: Protein L variant pAM260 (domain C3b-2; H10, H45, Y60) (protein)
chain: B3 chain with Q60Y
B8: Protein L variant pAM258 (domain C2b-2; H10, H45, Y60) (protein)
chain: B3 chain with I18T, Q60Y
B9: Protein L variant pAM259 (domain C3-2; H10, H45, Y60) (protein)
chain: B3 chain with D39N, Y57N, Q60Y
B10: Protein L variant pAM262 (domain D1-2; H10, H45, Y60) (protein)
chain: PKEEVTIKAHLIFADGKTQTAEFKGTFEEATAEAYRYADLLAKVHGEYTADLEDGGYTIYIKFAGKEQPGEN
B11: Protein L variant pAM248 (domain D1-1; H10, H45, Q60) (protein)
chain: B10 chain with Y60Q
B12: Protein L variant pAM247 (domain C4-1; H10, H45, Q60) (protein)
chain: PKEEVTIKVHLIFADGKTQTAEFKGTFEEATAEAYRYADLLAKVHGEYTADLEDGGYTIQIKFAGKEQPGENPG
B13: Protein L variant pAM244 (domain C2b-1; H10, H45, Q60) (protein)
chain: B3 chain with I18T
B14: Protein L variant pAM261 (domain C4-2; H10, H45, Y60) (protein)
chain: B12 chain with Q60Y
B15: Protein L variant pAM251 (domain B2-2; H10, H45, Y60) (protein)
chain: PKEEVTIKAHLIYADGKTQTAEFKGTFEEAAAEAYRYADALKKDHGEYTVDVADKGYTLYIKFAGKEKTPEE
B16: Protein L variant pAM237 (domain B2-1; H10, H45, Q60) (protein)
chain: B15 chain with Y60Q
B17: Protein L variant pAM238 (domain B3-1; H10, H45, Q60) (protein)
chain: B15 chain with A31T, A40L, K42A, D44E, E47K, Y60Q
B18: Protein L variant pAM252 (domain B3-2; H10, H45, Y60) (protein)
chain: B15 chain with A31T, A40L, K42A, D44E, E47K
B19: Protein L variant pAM253 (domain B4-2; H10, H45, Y60) (protein)
chain: PKEEVTIKAHLIYADGKTQTAEFKGTFAEATAEAYRYADLLAKEHGKYTADLEDGGYTIYIRFAGKKVDEKPEE
B20: Protein L variant pAM239 (domain B4-1; H10, H45, Q60) (protein)
chain: B19 chain with Y60Q

Target: IgG (Gammanorm)
Assay: SPR (Biacore), variant amine-coupled to CM5 chip, Gammanorm as analyte, steady state affinity fit

| Kd [nM] | Binder |
| --- | --- |
| 79 | B1 |
| 101 | B2 |
| 49 | B3 |
| 134 | B4 |
| 83 | B5 |
| 98 | B6 |
| 51 | B7 |
| 45 | B8 |
| 120 | B9 |
| 48 | B10 |
| 56 | B11 |
| 38 | B12 |
| 50 | B13 |
| 43 | B14 |
| 55 | B15 |
| 72 | B16 |
| 82 | B17 |
| 69 | B18 |
| 54 | B19 |
| 60 | B20 |

Target: IgG (Gammanorm)
Assay: SPR (Biacore), variant amine-coupled to CM5 chip, Gammanorm as analyte, 1:1 kinetic fit

| Kd [nM] | Binder |
| --- | --- |
| 29 | B1 |
| 42 | B2 |
| 17 | B3 |
| 65 | B4 |
| 39 | B5 |
| 47 | B6 |
| 18 | B7 |
| 17 | B8 |
| 55 | B9 |
| 11 | B10 |
| 16 | B11 |
| 9 | B12 |
| 18 | B13 |
| 12 | B14 |
| 20 | B15 |
| 27 | B16 |
| 25 | B17 |
| 16 | B18 |
| 14 | B19 |
| 17 | B20 |

Reference: patent US20250196025A1
